Assay results as given in US20220333113.
Substitutions are numbered along the chain they refer to. pKd: −log10 of the molar value.

Legend:
[1] = biological target: T1, RIG-I R664A (Homo sapiens) (UniProt O95786); assay: filter; conditions: J = PPdU at every J; SB18T0.01 + 1 mM DTT, 37 C
T1 sequence: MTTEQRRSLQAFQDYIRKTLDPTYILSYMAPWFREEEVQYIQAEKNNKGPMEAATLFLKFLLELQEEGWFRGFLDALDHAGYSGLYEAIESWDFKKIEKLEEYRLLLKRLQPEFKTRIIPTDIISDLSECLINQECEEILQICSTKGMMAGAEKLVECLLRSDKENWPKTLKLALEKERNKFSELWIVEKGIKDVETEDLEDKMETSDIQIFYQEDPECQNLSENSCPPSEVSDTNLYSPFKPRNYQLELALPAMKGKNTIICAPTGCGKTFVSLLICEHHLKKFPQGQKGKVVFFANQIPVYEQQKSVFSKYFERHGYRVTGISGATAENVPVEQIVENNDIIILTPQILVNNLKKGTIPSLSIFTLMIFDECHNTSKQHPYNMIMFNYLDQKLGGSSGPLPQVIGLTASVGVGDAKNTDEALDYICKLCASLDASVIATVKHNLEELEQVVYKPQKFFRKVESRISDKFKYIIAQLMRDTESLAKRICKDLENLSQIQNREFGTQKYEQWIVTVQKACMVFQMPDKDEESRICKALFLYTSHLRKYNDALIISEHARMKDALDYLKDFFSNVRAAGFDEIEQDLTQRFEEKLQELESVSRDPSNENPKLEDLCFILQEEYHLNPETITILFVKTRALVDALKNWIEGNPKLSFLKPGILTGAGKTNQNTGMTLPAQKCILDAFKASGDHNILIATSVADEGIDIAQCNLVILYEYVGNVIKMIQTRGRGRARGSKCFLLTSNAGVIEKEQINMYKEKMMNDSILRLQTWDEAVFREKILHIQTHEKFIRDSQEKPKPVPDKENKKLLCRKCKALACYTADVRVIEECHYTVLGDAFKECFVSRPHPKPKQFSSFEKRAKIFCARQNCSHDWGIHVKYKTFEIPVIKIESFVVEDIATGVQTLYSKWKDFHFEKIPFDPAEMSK

[2] = biological target: T2, RIG-I WT full-length (Homo sapiens) (UniProt O95786); assay: filter; conditions: J = PPdU at every J; SB18T0.01 + 1 mM DTT, 37 C
T2 sequence: T1 sequence with A664R

[3] = biological target: T3, RIG-I CTD (aa 792-925) (Homo sapiens) (UniProt O95786); assay: EMSA; conditions: J = PPdU at every J; SB18T0.01 + 20% glycerol, 1 mM DTT, 37 C
T3 sequence: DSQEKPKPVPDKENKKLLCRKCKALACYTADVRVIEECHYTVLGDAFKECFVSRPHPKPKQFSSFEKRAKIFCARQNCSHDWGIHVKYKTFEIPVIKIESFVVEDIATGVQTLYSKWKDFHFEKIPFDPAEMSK

## ATCTCTGTGTCATGTGTTTTAATGTCAGTTTAATGATGAGG [14832-55_8]
[1]
  pKd: 9.39
[2]
  pKd: 9.25
[3]
  pKd: 10.72
